Reference: PMC7580981

Target: IBV polymerase trimeric complex (Pol3): PA-His, PB1, PB2 (influenza B virus)
Experiment: SPR
Settings: natural protein

With chicken ANP32A, purified (GST cleaved) the Kd was 133 nM.
